Where two headings read alike, the source gives them in different places.
T1: CLuc-EXO70H4 (A. thaliana, UniProt Q9SF51 1-628)
T1 sequence: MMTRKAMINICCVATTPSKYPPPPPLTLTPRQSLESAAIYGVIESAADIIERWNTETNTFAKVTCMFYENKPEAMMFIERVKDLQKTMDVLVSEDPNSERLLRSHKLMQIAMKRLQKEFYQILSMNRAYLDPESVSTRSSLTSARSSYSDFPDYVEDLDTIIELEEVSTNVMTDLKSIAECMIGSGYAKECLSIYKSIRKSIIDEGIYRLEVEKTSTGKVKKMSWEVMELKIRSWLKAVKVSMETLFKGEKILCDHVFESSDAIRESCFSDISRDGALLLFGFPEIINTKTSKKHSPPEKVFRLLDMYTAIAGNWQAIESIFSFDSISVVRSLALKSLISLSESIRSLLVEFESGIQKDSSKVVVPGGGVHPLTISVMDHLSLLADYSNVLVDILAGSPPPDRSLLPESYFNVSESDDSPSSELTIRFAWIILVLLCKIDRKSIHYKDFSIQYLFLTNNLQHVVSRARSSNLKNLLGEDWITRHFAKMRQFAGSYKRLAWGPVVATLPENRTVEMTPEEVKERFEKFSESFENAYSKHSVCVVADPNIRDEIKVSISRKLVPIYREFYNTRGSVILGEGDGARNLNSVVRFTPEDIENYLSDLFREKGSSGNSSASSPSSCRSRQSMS

T2: CLuc-EXO70H1 (A. thaliana, UniProt Q8VY27 1-636)
T2 sequence: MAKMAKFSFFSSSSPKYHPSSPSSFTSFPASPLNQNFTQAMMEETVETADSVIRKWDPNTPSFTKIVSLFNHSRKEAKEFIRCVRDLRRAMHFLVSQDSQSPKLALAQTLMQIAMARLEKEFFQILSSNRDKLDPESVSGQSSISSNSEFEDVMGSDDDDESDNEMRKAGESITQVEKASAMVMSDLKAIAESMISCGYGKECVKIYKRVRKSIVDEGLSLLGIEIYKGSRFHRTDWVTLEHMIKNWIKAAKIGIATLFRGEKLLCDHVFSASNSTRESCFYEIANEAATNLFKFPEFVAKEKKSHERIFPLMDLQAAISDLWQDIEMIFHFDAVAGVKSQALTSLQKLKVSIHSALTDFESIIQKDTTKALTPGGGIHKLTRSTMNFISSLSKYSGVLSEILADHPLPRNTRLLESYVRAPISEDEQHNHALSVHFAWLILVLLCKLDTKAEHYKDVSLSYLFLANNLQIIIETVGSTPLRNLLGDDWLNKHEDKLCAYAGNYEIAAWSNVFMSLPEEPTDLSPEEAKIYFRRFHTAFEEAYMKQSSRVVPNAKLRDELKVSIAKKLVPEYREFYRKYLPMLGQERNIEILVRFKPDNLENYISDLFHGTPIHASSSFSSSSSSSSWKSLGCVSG

T3: CLuc-EXO70H2 (A. thaliana, UniProt O80625 1-637)
T3 sequence: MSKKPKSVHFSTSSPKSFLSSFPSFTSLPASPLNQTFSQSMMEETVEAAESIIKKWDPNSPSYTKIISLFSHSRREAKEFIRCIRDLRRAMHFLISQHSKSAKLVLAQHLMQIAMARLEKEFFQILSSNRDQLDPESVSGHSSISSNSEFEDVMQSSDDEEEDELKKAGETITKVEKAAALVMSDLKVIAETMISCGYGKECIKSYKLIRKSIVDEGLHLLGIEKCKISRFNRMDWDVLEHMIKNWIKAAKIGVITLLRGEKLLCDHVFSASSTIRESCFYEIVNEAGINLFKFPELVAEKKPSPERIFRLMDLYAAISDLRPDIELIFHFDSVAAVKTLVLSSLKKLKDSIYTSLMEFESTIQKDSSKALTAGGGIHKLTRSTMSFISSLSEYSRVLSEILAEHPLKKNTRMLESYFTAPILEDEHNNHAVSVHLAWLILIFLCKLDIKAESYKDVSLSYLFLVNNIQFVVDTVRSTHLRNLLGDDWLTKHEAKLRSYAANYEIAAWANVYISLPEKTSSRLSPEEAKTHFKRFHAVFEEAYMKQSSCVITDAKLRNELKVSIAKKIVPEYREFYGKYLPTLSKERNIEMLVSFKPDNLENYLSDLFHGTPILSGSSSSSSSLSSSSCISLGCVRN

T4: CLuc-EXO70B2 (A. thaliana, UniProt Q9LMJ4 1-599)
T4 sequence: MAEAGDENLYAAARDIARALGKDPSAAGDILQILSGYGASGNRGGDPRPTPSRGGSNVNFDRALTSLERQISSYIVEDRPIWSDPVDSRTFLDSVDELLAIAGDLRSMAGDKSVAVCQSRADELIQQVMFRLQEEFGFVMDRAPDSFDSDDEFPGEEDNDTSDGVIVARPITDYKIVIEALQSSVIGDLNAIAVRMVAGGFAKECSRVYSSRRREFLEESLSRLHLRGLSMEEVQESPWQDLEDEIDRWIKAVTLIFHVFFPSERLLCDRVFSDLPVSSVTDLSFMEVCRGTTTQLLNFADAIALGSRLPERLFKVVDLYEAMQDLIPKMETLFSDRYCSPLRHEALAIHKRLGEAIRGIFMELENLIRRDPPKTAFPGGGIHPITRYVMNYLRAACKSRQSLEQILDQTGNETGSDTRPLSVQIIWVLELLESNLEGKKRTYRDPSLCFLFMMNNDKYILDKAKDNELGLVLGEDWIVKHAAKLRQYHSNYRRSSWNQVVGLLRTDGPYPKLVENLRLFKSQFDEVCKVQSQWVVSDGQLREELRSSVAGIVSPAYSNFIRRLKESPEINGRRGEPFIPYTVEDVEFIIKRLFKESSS


Assays:
Test in all cases: split reporter
CLuc-EXO70H4 [1] = molecular target: T1, CLuc-EXO70H4
[2] = molecular target: CLuc-EXO70H7 (A. thaliana); conditions: scale: relative to the calmodulin positive control
CLuc-EXO70H1 [3] = molecular target: T2, CLuc-EXO70H1
CLuc-EXO70H2 = molecular target: T3, CLuc-EXO70H2
CLuc-EXO70H4 [4] = molecular target: T1, CLuc-EXO70H4; remark: listed apart in the source
CLuc-EXO70B2 = molecular target: T4, CLuc-EXO70B2
CLuc-EXO70H1 [5] = molecular target: T2, CLuc-EXO70H1; remark: listed apart in the source

Binder | relative luminescence (CLuc-EXO70H4 [1]) | relative luminescence [2] | relative luminescence (CLuc-EXO70H1 [3]) | relative luminescence (CLuc-EXO70H2) | relative luminescence (CLuc-EXO70H4 [4]) | relative luminescence (CLuc-EXO70B2) | relative luminescence (CLuc-EXO70H1 [5])
MLO6-NLuc (natural protein) MADQVKEKTLEETSTWAVAVVCFVLLLISIVIEKLIHKIGSWFKKKNKKALYEALEKVKAELMLMGFISLLLTIGQGYISNICIPKNIAASMHPCSASEEARKYGKKDVPKEDEEENLRRKLLQLVDSLIPRRSLATKGYDKCAEKGKVAFVSAYGMHQLHIFIFVLAVCHVIYCIVTYALGKTKMRRWKKWEEETKTIEYQYSHDPERFRFARDTSFGRRHLSFWSKSTITLWIVCFFRQFFRSVTKVDYLTLRHGFIMAHLAPGSDARFDFRKYIQRSLEEDFKTIVEINPVIWFIAVLFLLTNTNGLNSYLWLPFIPFIVILIVGTKLQVIITKLGLRIQEKGDVVKGTPLVQPGDHFFWFGRPRFILFLIHLVLFTNAFQLAFFVWSTYEFGLKNCFHESRVDVIIRISIGLLVQILCSYVTLPLYALVTQMGSKMKPTVFNERVATALKSWHHTAKKNIKHGRTSESTTPFSSRPTTPTHGSSPIHLLRNAPHKRSRSVDESFANSFSPRNSDFDSWDPESQHETAETSNSNHRSRFGEEESEKKFVSSSVELPPGPGQIRTQHEISTISLRDFSFKR | ~0.67 relative to the calmodulin positive control | > 0.24 | > 0.24 relative to the calmodulin positive control | > 0.24 relative to the calmodulin positive control | > 0.24 relative to the calmodulin positive control | – | –
MLO2-NLuc (natural protein) MADQVKERTLEETSTWAVAVVCFVLLFISIVLEHSIHKIGTWFKKKHKQALFEALEKVKAELMLLGFISLLLTIGQTPISNICISQKVASTMHPCSAAEEAKKYGKKDAGKKDDGDGDKPGRRLLLELAESYIHRRSLATKGYDKCAEKGKVAFVSAYGIHQLHIFIFVLAVVHVVYCIVTYAFGKIKMRTWKSWEEETKTIEYQYSNDPERFRFARDTSFGRRHLNFWSKTRVTLWIVCFFRQFFGSVTKVDYLALRHGFIMAHFAPGNESRFDFRKYIQRSLEKDFKTVVEISPVIWFVAVLFLLTNSYGLRSYLWLPFIPLVVILIVGTKLEVIITKLGLRIQEKGDVVRGAPVVQPGDDLFWFGKPRFILFLIHLVLFTNAFQLAFFAWSTYEFNLNNCFHESTADVVIRLVVGAVVQILCSYVTLPLYALVTQMGSKMKPTVFNDRVATALKKWHHTAKNETKHGRHSGSNTPFSSRPTTPTHGSSPIHLLHNFNNRSVENYPSSPSPRYSGHGHHEHQFWDPESQHQEAETSTHHSLAHESSEPVLASVELPPIRTSKSLRDFSFKK | ~0.4 relative to the calmodulin positive control | – | – | – | – | ~0.56 relative to the calmodulin positive control | ~0.39 relative to the calmodulin positive control
MLO12-NLuc (natural protein) MAIKERSLEETPTWAVAVVCFVLLFISIMIEYFLHFIGHWFKKKHKKALSEALEKVKAELMLLGFISLLLVVLQTPVSEICIPRNIAATWHPCSNHQEIAKYGKDYIDDGRKILEDFDSNDFYSPRRNLATKGYDKCAEKGKVALVSAYGIHQLHIFIFVLAVFHVLYCIITYALGKTKMKKWKSWERETKTIEYQYANDPERFRFARDTSFGRRHLNIWSKSTFTLWITCFFRQFFGSVTKVDYLTLRHGFIMAHLPAGSAARFDFQKYIERSLEQDFTVVVGISPLIWCIAVLFILTNTHGWDSYLWLPFLPLIVILIVGAKLQMIISKLGLRIQEKGDVVKGAPVVEPGDDLFWFGRPRFILFLIHLVLFTNAFQLAFFVWSTYEFTLKNCFHHKTEDIAIRITMGVLIQVLCSYITLPLYALVTQMGTSMRPTIFNDRVANALKKWHHTAKKQTKHGHSGSNTPHSSRPTTPTHGMSPVHLLHNYNNRSLDQQTSFTASPSPPRFSDYSGQGHGHQHFFDPESQNHSYQREITDSEFSNSHHPQVDMASPVREEKEIVEHVKVDLSEFTFKK | – | – | – | – | – | – | ~0.37 relative to the calmodulin positive control
